# Measurements from the Human Domainome abundance scans (Beltran et al. 2025).
# ± gives the uncertainty stated by the source.
# B1: Nucleolar transcription factor 1, residues 408 to 469; numbered along this chain, P17480 (parent)
# chain: KRPVSAMFIFSEEKRRQLQEERPELSESELTRLLARMWNDLSEKKKAKYKAREAALKAQSER
# Variants of: B1
# Assay: abundance fitness (aPCA) (normalised: wild type 0, dead -1); higher = more abundant; growth selection in yeast, the domain comes from the species named
# Conditions: Homo sapiens
row,Variant,abundance fitness
1,KRPVSAMFIFSEEKRSQLQEERPELSESELTRLLARMWNDLSEKKKAKYKAREAALKAQSER,-0.001 ± 0.048
2,KRPVSAMFIFSEEKRLQLQEERPELSESELTRLLARMWNDLSEKKKAKYKAREAALKAQSER,-0.058 ± 0.056
3,KRPVSAMFIFSEEKRMQLQEERPELSESELTRLLARMWNDLSEKKKAKYKAREAALKAQSER,-0.024 ± 0.067
4,KRPVSAMFIFSEEKRIQLQEERPELSESELTRLLARMWNDLSEKKKAKYKAREAALKAQSER,-0.11 ± 0.13
5,KRPVSAMFIFSEEKRKQLQEERPELSESELTRLLARMWNDLSEKKKAKYKAREAALKAQSER,-0.073 ± 0.12
6,KRPVSAMFIFSEEKRQQLQEERPELSESELTRLLARMWNDLSEKKKAKYKAREAALKAQSER,-0.041 ± 0.066
7,KRPVSAMFIFSEEKRFQLQEERPELSESELTRLLARMWNDLSEKKKAKYKAREAALKAQSER,-0.147 ± 0.1
8,KRPVSAMFIFSEEKRWQLQEERPELSESELTRLLARMWNDLSEKKKAKYKAREAALKAQSER,-0.106 ± 0.054
9,KRPVSAMFIFSEEKREQLQEERPELSESELTRLLARMWNDLSEKKKAKYKAREAALKAQSER,-0.106 ± 0.074
10,KRPVSAMFIFSEEKRCQLQEERPELSESELTRLLARMWNDLSEKKKAKYKAREAALKAQSER,-0.012 ± 0.069
11,KRPVSAMFIFSEEKRDQLQEERPELSESELTRLLARMWNDLSEKKKAKYKAREAALKAQSER,-0.248 ± 0.094
12,KRPVSAMFIFSEEKRGQLQEERPELSESELTRLLARMWNDLSEKKKAKYKAREAALKAQSER,-0.037 ± 0.043
13,KRPVSAMFIFSEEKRTQLQEERPELSESELTRLLARMWNDLSEKKKAKYKAREAALKAQSER,-0.078 ± 0.099
14,KRPVSAMFIFSEEKRNQLQEERPELSESELTRLLARMWNDLSEKKKAKYKAREAALKAQSER,-0.154 ± 0.16
15,KRPVSAMFIFSEEKRHQLQEERPELSESELTRLLARMWNDLSEKKKAKYKAREAALKAQSER,-0.071 ± 0.07
16,KRPVSAMFIFSEEKRVQLQEERPELSESELTRLLARMWNDLSEKKKAKYKAREAALKAQSER,-0.044 ± 0.053
17,KRPVSAMFIFSEEKRYQLQEERPELSESELTRLLARMWNDLSEKKKAKYKAREAALKAQSER,-0.072 ± 0.099
18,KRPVSAMFIFSEEKRAQLQEERPELSESELTRLLARMWNDLSEKKKAKYKAREAALKAQSER,-0.027 ± 0.051
19,KRPVSAMFIFSEEKKRQLQEERPELSESELTRLLARMWNDLSEKKKAKYKAREAALKAQSER,0.035 ± 0.078
20,KRPVSAMFIFSEEKDRQLQEERPELSESELTRLLARMWNDLSEKKKAKYKAREAALKAQSER,-1.2 ± 0.25
21,KRPVSAMFIFSEEKARQLQEERPELSESELTRLLARMWNDLSEKKKAKYKAREAALKAQSER,-0.201 ± 0.051
22,KRPVSAMFIFSEEKYRQLQEERPELSESELTRLLARMWNDLSEKKKAKYKAREAALKAQSER,-0.243 ± 0.16

row,Variant,abundance fitness
1,KRPVSAMFIFSEEKVRQLQEERPELSESELTRLLARMWNDLSEKKKAKYKAREAALKAQSER,-0.29 ± 0.052
2,KRPVSAMFIFSEEKQRQLQEERPELSESELTRLLARMWNDLSEKKKAKYKAREAALKAQSER,-0.267 ± 0.13
3,KRPVSAMFIFSEEKERQLQEERPELSESELTRLLARMWNDLSEKKKAKYKAREAALKAQSER,-0.279 ± 0.063
4,KRPVSAMFIFSEEKMRQLQEERPELSESELTRLLARMWNDLSEKKKAKYKAREAALKAQSER,-0.19 ± 0.11
5,KRPVSAMFIFSEEKGRQLQEERPELSESELTRLLARMWNDLSEKKKAKYKAREAALKAQSER,-0.153 ± 0.043
6,KRPVSAMFIFSEEKWRQLQEERPELSESELTRLLARMWNDLSEKKKAKYKAREAALKAQSER,-0.295 ± 0.096
7,KRPVSAMFIFSEEKTRQLQEERPELSESELTRLLARMWNDLSEKKKAKYKAREAALKAQSER,-0.23 ± 0.077
8,KRPVSAMFIFSEEKNRQLQEERPELSESELTRLLARMWNDLSEKKKAKYKAREAALKAQSER,-0.427 ± 0.08
9,KRPVSAMFIFSEEKFRQLQEERPELSESELTRLLARMWNDLSEKKKAKYKAREAALKAQSER,-0.111 ± 0.06
10,KRPVSAMFIFSEEKSRQLQEERPELSESELTRLLARMWNDLSEKKKAKYKAREAALKAQSER,-0.121 ± 0.05
11,KRPVSAMFIFSEEKPRQLQEERPELSESELTRLLARMWNDLSEKKKAKYKAREAALKAQSER,-1.28 ± 0.15
12,KRPVSAMFIFSEEKLRQLQEERPELSESELTRLLARMWNDLSEKKKAKYKAREAALKAQSER,-0.168 ± 0.043
13,KRPVSAMFIFSEEKCRQLQEERPELSESELTRLLARMWNDLSEKKKAKYKAREAALKAQSER,-0.218 ± 0.071
14,KRPVSAMFIFSEEKHRQLQEERPELSESELTRLLARMWNDLSEKKKAKYKAREAALKAQSER,-0.411 ± 0.2
15,KRPVSAMFIFSEEKIRQLQEERPELSESELTRLLARMWNDLSEKKKAKYKAREAALKAQSER,-0.209 ± 0.094
16,KRPVSAMFIFSEEPRRQLQEERPELSESELTRLLARMWNDLSEKKKAKYKAREAALKAQSER,-0.956 ± 0.092
17,KRPVSAMFIFSEEGRRQLQEERPELSESELTRLLARMWNDLSEKKKAKYKAREAALKAQSER,-0.238 ± 0.058
18,KRPVSAMFIFSEERRRQLQEERPELSESELTRLLARMWNDLSEKKKAKYKAREAALKAQSER,-0.034 ± 0.046
19,KRPVSAMFIFSEEVRRQLQEERPELSESELTRLLARMWNDLSEKKKAKYKAREAALKAQSER,-0.07 ± 0.047
20,KRPVSAMFIFSEEFRRQLQEERPELSESELTRLLARMWNDLSEKKKAKYKAREAALKAQSER,-0.034 ± 0.08
21,KRPVSAMFIFSEECRRQLQEERPELSESELTRLLARMWNDLSEKKKAKYKAREAALKAQSER,-0.319 ± 0.095
22,KRPVSAMFIFSEEARRQLQEERPELSESELTRLLARMWNDLSEKKKAKYKAREAALKAQSER,-0.057 ± 0.061

row,Variant,abundance fitness
1,KRPVSAMFIFSEEERRQLQEERPELSESELTRLLARMWNDLSEKKKAKYKAREAALKAQSER,-0.229 ± 0.079
2,KRPVSAMFIFSEEDRRQLQEERPELSESELTRLLARMWNDLSEKKKAKYKAREAALKAQSER,-0.729 ± 0.085
3,KRPVSAMFIFSEENRRQLQEERPELSESELTRLLARMWNDLSEKKKAKYKAREAALKAQSER,-0.086 ± 0.075
4,KRPVSAMFIFSEEIRRQLQEERPELSESELTRLLARMWNDLSEKKKAKYKAREAALKAQSER,-0.085 ± 0.15
5,KRPVSAMFIFSEEWRRQLQEERPELSESELTRLLARMWNDLSEKKKAKYKAREAALKAQSER,-0.167 ± 0.067
6,KRPVSAMFIFSEEQRRQLQEERPELSESELTRLLARMWNDLSEKKKAKYKAREAALKAQSER,-0.064 ± 0.079
7,KRPVSAMFIFSEEMRRQLQEERPELSESELTRLLARMWNDLSEKKKAKYKAREAALKAQSER,-0.044 ± 0.074
8,KRPVSAMFIFSEEYRRQLQEERPELSESELTRLLARMWNDLSEKKKAKYKAREAALKAQSER,-0.038 ± 0.064
9,KRPVSAMFIFSEEHRRQLQEERPELSESELTRLLARMWNDLSEKKKAKYKAREAALKAQSER,0.062 ± 0.088
10,KRPVSAMFIFSEEKRRVLQEERPELSESELTRLLARMWNDLSEKKKAKYKAREAALKAQSER,-0.018 ± 0.057
11,KRPVSAMFIFSEEKRRALQEERPELSESELTRLLARMWNDLSEKKKAKYKAREAALKAQSER,-0.081 ± 0.068
12,KRPVSAMFIFSEEKRRRLQEERPELSESELTRLLARMWNDLSEKKKAKYKAREAALKAQSER,-0.114 ± 0.051
13,KRPVSAMFIFSEEKRRLLQEERPELSESELTRLLARMWNDLSEKKKAKYKAREAALKAQSER,-0.034 ± 0.046
14,KRPVSAMFIFSEEKRRTLQEERPELSESELTRLLARMWNDLSEKKKAKYKAREAALKAQSER,-0.026 ± 0.092
15,KRPVSAMFIFSEEKRRWLQEERPELSESELTRLLARMWNDLSEKKKAKYKAREAALKAQSER,-0.106 ± 0.046
16,KRPVSAMFIFSEEKRRYLQEERPELSESELTRLLARMWNDLSEKKKAKYKAREAALKAQSER,-0.145 ± 0.12
17,KRPVSAMFIFSEEKRRGLQEERPELSESELTRLLARMWNDLSEKKKAKYKAREAALKAQSER,-0.038 ± 0.041
18,KRPVSAMFIFSEEKRRHLQEERPELSESELTRLLARMWNDLSEKKKAKYKAREAALKAQSER,-0.091 ± 0.12
19,KRPVSAMFIFSEEKRRILQEERPELSESELTRLLARMWNDLSEKKKAKYKAREAALKAQSER,-0.201 ± 0.14
20,KRPVSAMFIFSEEKRRMLQEERPELSESELTRLLARMWNDLSEKKKAKYKAREAALKAQSER,-0.028 ± 0.057
21,KRPVSAMFIFSEEKRRNLQEERPELSESELTRLLARMWNDLSEKKKAKYKAREAALKAQSER,-0.078 ± 0.22
22,KRPVSAMFIFSEEKRRELQEERPELSESELTRLLARMWNDLSEKKKAKYKAREAALKAQSER,0.002 ± 0.055

row,Variant,abundance fitness
1,KRPVSAMFIFSEEKRRDLQEERPELSESELTRLLARMWNDLSEKKKAKYKAREAALKAQSER,-0.112 ± 0.11
2,KRPVSAMFIFSEEKRRKLQEERPELSESELTRLLARMWNDLSEKKKAKYKAREAALKAQSER,-0.094 ± 0.068
3,KRPVSAMFIFSEEKRRSLQEERPELSESELTRLLARMWNDLSEKKKAKYKAREAALKAQSER,-0.016 ± 0.053
4,KRPVSAMFIFSEEKRRCLQEERPELSESELTRLLARMWNDLSEKKKAKYKAREAALKAQSER,-0.211 ± 0.078
5,KRPVSAMFIFSEPKRRQLQEERPELSESELTRLLARMWNDLSEKKKAKYKAREAALKAQSER,-0.663 ± 0.074
6,KRPVSAMFIFSEWKRRQLQEERPELSESELTRLLARMWNDLSEKKKAKYKAREAALKAQSER,-0.355 ± 0.054
7,KRPVSAMFIFSEYKRRQLQEERPELSESELTRLLARMWNDLSEKKKAKYKAREAALKAQSER,-0.29 ± 0.23
8,KRPVSAMFIFSETKRRQLQEERPELSESELTRLLARMWNDLSEKKKAKYKAREAALKAQSER,-0.167 ± 0.089
9,KRPVSAMFIFSERKRRQLQEERPELSESELTRLLARMWNDLSEKKKAKYKAREAALKAQSER,-0.207 ± 0.059
10,KRPVSAMFIFSEVKRRQLQEERPELSESELTRLLARMWNDLSEKKKAKYKAREAALKAQSER,-0.187 ± 0.079
11,KRPVSAMFIFSEEKRRQGQEERPELSESELTRLLARMWNDLSEKKKAKYKAREAALKAQSER,-1 ± 0.055
12,KRPVSAMFIFSEEKRRQCQEERPELSESELTRLLARMWNDLSEKKKAKYKAREAALKAQSER,-0.127 ± 0.055
13,KRPVSAMFIFSEEKRRQPQEERPELSESELTRLLARMWNDLSEKKKAKYKAREAALKAQSER,-1.37 ± 0.14
14,KRPVSAMFIFSEEKRRQFQEERPELSESELTRLLARMWNDLSEKKKAKYKAREAALKAQSER,-0.085 ± 0.13
15,KRPVSAMFIFSEEKRRQNQEERPELSESELTRLLARMWNDLSEKKKAKYKAREAALKAQSER,-0.98 ± 0.11
16,KRPVSAMFIFSEEKRRQDQEERPELSESELTRLLARMWNDLSEKKKAKYKAREAALKAQSER,-1.5 ± 0.23
17,KRPVSAMFIFSEEKRRQAQEERPELSESELTRLLARMWNDLSEKKKAKYKAREAALKAQSER,-0.167 ± 0.052
18,KRPVSAMFIFSEEKRRQHQEERPELSESELTRLLARMWNDLSEKKKAKYKAREAALKAQSER,-0.639 ± 0.12
19,KRPVSAMFIFSEEKRRQEQEERPELSESELTRLLARMWNDLSEKKKAKYKAREAALKAQSER,-0.664 ± 0.06
20,KRPVSAMFIFSEEKRRQMQEERPELSESELTRLLARMWNDLSEKKKAKYKAREAALKAQSER,-0.108 ± 0.058
